Substrate in this data set: NC(=O)c1cnccn1
Description: steady-state enzyme kinetics. It counts as biochemical, Acinetobacter baumannii.

What is called Km is the concentration of substrate that gives half-maximal velocity.

B1: AbPncA (Acinetobacter baumannii ATCC 19606 = CIP 70.34 = JCM 6841) (protein)
chain: MKMNKQPQNSALVVVDVQNGFTPGGNLAVADADTIIPTINQLAGCFENVVLTQDWHPDNHISFAANHPGKQPFETIELDYGSQVLWPKHCIQGTHDAEFHPDLNIPTAQLIIRKGFHAHIDSYSAFMEADHTTMTGLTGYLKERGIDTVYVVGIATDFCVAWTALDAVKQGFKTLVIEDACKGIDLNGSLEQAWQTMQQQGVVRIQSTDLLNEC
As to B1, the Km was 106.9 µM.

The record behind these values is PMC3465764.
